Reference: publication PMC7105497

Target: human EWI-2 wild type with FLAG-tag (FSEC assay) (human) (UniProt Q969P0)
Test: SEC; fluorescence-detection size-exclusion chromatography (FSEC): GFP-tagged CD9 and FLAG-tagged EWI-2 co-expressed in HEK293T cells, solubilised in 1% digitonin, supernatant run on Superose 6 Increase in 10 mM HEPES pH 7.0, 150 mM NaCl, 0.1% digitonin; GFP fluorescence monitored

Sequence of UniProt Q969P0 (Q969P0 28-613): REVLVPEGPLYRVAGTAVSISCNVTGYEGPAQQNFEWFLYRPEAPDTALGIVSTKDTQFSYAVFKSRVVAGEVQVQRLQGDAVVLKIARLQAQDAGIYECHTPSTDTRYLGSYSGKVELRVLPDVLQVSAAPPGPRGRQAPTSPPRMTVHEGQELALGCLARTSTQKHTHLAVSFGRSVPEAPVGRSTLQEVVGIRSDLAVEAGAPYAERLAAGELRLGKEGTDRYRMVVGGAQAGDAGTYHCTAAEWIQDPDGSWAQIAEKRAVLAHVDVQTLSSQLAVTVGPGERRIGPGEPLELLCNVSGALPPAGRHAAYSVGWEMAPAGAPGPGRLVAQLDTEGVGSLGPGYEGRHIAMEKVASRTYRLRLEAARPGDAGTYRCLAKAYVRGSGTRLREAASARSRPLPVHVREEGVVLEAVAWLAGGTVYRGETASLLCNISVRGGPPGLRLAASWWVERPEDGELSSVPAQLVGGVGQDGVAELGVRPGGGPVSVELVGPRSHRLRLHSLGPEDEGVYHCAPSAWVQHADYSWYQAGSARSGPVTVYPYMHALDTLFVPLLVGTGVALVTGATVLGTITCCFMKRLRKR

stoichiometry N (EWI-2 per CD9): 2
Substance: CD9-CD53LEL (CD9 with its LEL region exchanged with that of CD53)
